The nanobody polyreactivity screen of Harvey et al. (2022)

assay: yeast display, Sf9 membrane polyspecificity reagent, FACS + sequencing; frameworks hold sequencing errors
Procedure, shortened: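 Nanobodies came from a synthetic yeast display library in Saccharomyces cerevisiae BJ5465, induced with galactose for 36–48 hours and stained for 1 hour at 4 °C with 10% biotinylated, detergent-solubilized Sf9 membrane reagent. Cells were enriched on streptavidin microbeads and then FACS-sorted, with low and high (top ~1%) gates set on anti-HA fluorescence for expression and streptavidin fluorescence for reagent binding. Each polyreactivity label reflects the gate a clone came from. Genes were amplified by colony PCR, sequenced by MiSeq 2 × 250 and filtered by CDR length.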

| Sequence | polyreactivity (PSR sort gate) |
| --- | --- |
| QVQLVESGGGLVQAGGSLRLSCASSGRIFGSYAMGWYRQAPGKERELVAGIRSVGSTNYADSVKGRFTISRDNAKNTVFLQINSLKPEDTAVYYCAARLWHLSYAGQGGDYWGQVTQVTVSS | low polyreactivity |
| QVQLLESGGGLVQAGGSLRLTCAASGSTFKRYAMGWYRQAPGKERELVAAITTSGGSTYYADSVKGRFTISRDNAKNTVYLQMNSLEPEDTAVYYCAAVWPGRRTTNYYFPGHGYQYGYWGQGTQVTVSS | high polyreactivity |
| QVQLVESGGGLVQAGGSLRLSCAASGSTFWFYAMGWYRQAHGKERELVAVISNSGSTYYADSVKGRFTISRDNAKNTVYLQMNSLKPEDTAVYYCNKDGGGDSYWYDYWGQGTQVTVSS | low polyreactivity |
| QVQLVESGGGIVQAGGSLRLSCAASGIIFQTYAKGWYRQAPGKERELVAAISRSGGSTYYADSVKGRFTISRENSKNTVYLQMNSLKPEDTAVYYCAAYGYNVNWLKGIYWGQGTQVTVSS | high polyreactivity |
| QVQLVESGGGLVQAGGSLRLSCAASGFISDWYAMGWYRQAPGKERELVATIDWIGGSTYADSVKGRFTISRDNAKNTVYLQMNSLKPEDTAVYYCAADSYFIAWYGAHYAYDYWRQGTQVTVSS | low polyreactivity |
| QVQLVESGGGLVQAGGSLRLSCAASGSIFDYYAMGWYRQAPGKERELVAAISWRGGRTYYADSVKGRFTISRDNAKNTVYLQMNSLKPEDTAVYYCAAYFQRSGFSFRLRGQGTQVTVSS | high polyreactivity |
| QVQLVESGGGLVQAGGSLRLSCAASGRIFYGNAMGWYRQAPGKERELVAAISSGGGSTYYADSVKGRFTISRDNAKNTVYLQMNSLKPEDTAVYYCAADPVHRFPGTGGYWGQGTQVTVSS | low polyreactivity |
| QVQLVESGGGLVQAGASLRLSCAASGLTFEYYTMGWYRQAPGKERELVAAITSSGGSTYYADSVKGRFTISRDNAKNTVYLQMNSLKPEDTAVYYCNAYWTYEFPSYDYWGQGTQVTVSS | low polyreactivity |
| QVQLVESGGGLVQAGGSLRLSCAASGYTFEDNAMGWYRQAPGKERELVAAIDWSGDSTYYADSVKGRFTISRDNAKNTVYLQMNSLKPEDTAVYYCSADYTTWTDMDYWGQGTQVTVSS | low polyreactivity |
| QVQLVESGGGLVQAGGSLRLSCAASGSTFVIYGMGWYRQAPGTERELVADITWIGGSTYYADSVKGRFTISRDNAKNTVYLQMNSLKPEDTAVYYCNADVRYGRDHWGQGTQVTVSS | low polyreactivity |
| QVQLVESGGGLVQAGGSLRLSCAASGSIFVKYAMGWYRQAPGKERELVASITGRGGSTYYADSVKGRFTISRDNAKNTVYLQMNSLKPEDTAVYYCAARVASRHGWHNYWGQGSQVTVSS | high polyreactivity |
| QVQLVESGGGLVQAGGSLRLSCAASGRIFGGNAMGWYRQAPGKERELVAAISRNGGRTYYADSVKGRFTISRDNEKNTVYLQKNSLKPEDTAFYYCNAGYKEPHYYYWGQGTQVTVSS | high polyreactivity |
| QVQLVESGGGLVQAGGSLRLSCAATGSIFFDNAMGWYRQAPGHERELVAAITSSGGRTYYADSVKGRFTISRDNAKNTVYLQMNSLKPEDTAVYYCAASPKYTTGRYSGEYWGQGTQVTVSS | low polyreactivity |
| QVQLVESGGGLVQAGGSLRLSCAASGRIFQIYAMGWYRQAPGKERELVATISSGTRTYYADSVKGRFTISRDNAKNTVYLQMNSLKPEDTAVYYCNTGLVYGYDYWGQGTQVTVSS | high polyreactivity |
| QVQLVESGGGLVQAGGSLRLSCAASGSIFDYYTMGWYRQAPGKEREWVAAITRSGGRTYYADSVKGRFTISRDNAKNTVYLQMNSLKPEDTAVYYCATRAVSRFGNGPYDYWGQGTQVTVSS | high polyreactivity |
| QVHLVESGGGLVQAGGSLRLSCAASGSTFSGNGMGWYRQAPGKERELVAAINWYGGTTYYADSVKGRFTISRDNAKNTVYLQMNSLKQEDTAVYYCARESTLTYYSDDFDYWGQGTQVTVSS | low polyreactivity |
| QVQLVESGGGLVQAGGSLRLSCAASGITFISYVKGWYRQAPGKEREVVAAISKRGGSTYYADSVKGRFTISRDNAKNTVYFKINSLKAEDTAVYYCAAKTIPWSVGYDYWGQGTQVTVSS | high polyreactivity |
| QVHFVESGGGLVQAGGSLRLSSAASGRTFQYNAMGWYRQAPGKERELVARITWSGDSTYYADSVKGRFTISRDNAKNSVYLQMNSLKPEDTAVYYCNAGRRWRRTAYDYWGQGTQVTVSS | high polyreactivity |
| QVQLVESGGGLIQAGGSLRLSCAASGIIFYPYTMGWYRQAPGKERELVAAIRQSGTSTYYADSVKGRFTISRDNAKNTVYLQMNSLKPEDTAVYYCNADDHIYWRKGYDYWGQGTQVTVSS | low polyreactivity |
| QVQLVESGGGLVQAGGSLRLSCAPSGFIFYGYAMGWYRPAPGKERELVAAISRRGGSTYYADSVKGRFTISRDDAKNSVYLQMNSLKPEDTAVYYCAATYEVNYRKYGYWGQGTQVTVSS | high polyreactivity |
| QVQLVESGGGLVQAGGSLRLSCAASGYTFSPNDMGWYRQAPGKERELVAAMTSSVGSTYYADSVKGRFTISRDNAKNTVFLQMNSLKPEDTAVFYCAADTWYLGYPDFWLDYWGQGTQVTVSS | low polyreactivity |
| QVQLVESGGGLVQAGGSLRLSCAASGRIFIYYAMGRYRQAPGKERELVAGIDYSGGSTYYADSVKGRFTISRDNAKNTVYLQMNSLKPEDTAVYFCAAGKYRHYYGRSFYRFDYWGKGTQVTVSS | high polyreactivity |

| Sequence | polyreactivity (PSR sort gate) |
| --- | --- |
| QVQLVESGGCLVQAGGSLRLSCAASGNTFRRNVMGWYRQAPGKERELVPAINRGGSTTYADSVKGRFTISRDNAMNTVYLQMNSLKPEDTAVYYCNAEKRGQSYRFDYWGQGSQVTVSS | high polyreactivity |
| QVQLVESGGGLVQAGGSLRLSCAASGIIFSDYTMGWYRQAPGKERELVAAITWSGASTYYADSVKGRFTISRDNAKNTVYLQMNSLKPEDTAVYYCAAREYWYPGYVSWFDYWGQGTQVTVSS | high polyreactivity |
| QVQLVESGGGLVQAGGSLRLSCAASGSTLWAYAMGWYRQAPGKERELVASISSGGNTNYADSVKGRFTISRDNAKNTVYLQMNSLKPEDTAVYYCAAVGYLYFWYPYDYWGQGTQLTVSS | low polyreactivity |
| QVQLVESVGGLVQAGGSLRLSSAASGYTSNIYAMGWYRQAPGTERELVASIRGRSGSTYYADSVKGRFTISRDNAKNSVYLQMNSLKPEDTAVYYCAGSRPWDFYRFGFDYWGQGTQVTVSS | high polyreactivity |
| QVPLVESGGGLVQAGGSLRLSCAASGFTFGWYAMGWYRQAPGKERELVAAISSNGGRTSYADSVKGRFTISRDNAKNTVYLQMNSLKPEDTAVYYCNADDRYIWTYWGWTIYDYWGQGTQVTVSS | high polyreactivity |
| QVQLVESGGGLVQAGGSLRLICAASGGIFNYYAMGWYREAPGKERELVAAISASGGSTYYADSVKGRFTISRDNAKNTVYLQMNSLKPEDTAVYYCAAGLPYGYGYDYWGQGTQVTVSS | low polyreactivity |
| QVQLVESGGGLVQAGGSLRLSCAASGLTFVDNAMGWYRQAPGKERELVAAISYNGGSTYYADSVMGRFTISRDNAKNTVYLLMNSLKPEDTAVYYCAADISVGRYGDMDYWGQGTQVTVSS | low polyreactivity |
| QVQLVESGGGLVQAGGSLRLSCAASGRIFLYNTMGWYRQAPGKERELVARISWSGGSTKYADSVKGRFTISRDNAKNTVYLQMNSLKPEDTAVYYCNAGYFTEYNSWGQGTQVTVSS | high polyreactivity |
| QVQLVKSGGGLVQAGGSLRLSCAASGGTFSFYTMGWYRQAPGKERELVAAIDSTGRTNYADSVKGRFTISRDNANHTVYLQMNSLKPEDTAVYYCAAGPPRADYDYWGQGTQVNVSS | low polyreactivity |
| QVQLVDSGGGLVQAGGSLRLSCAASGRIFRDNCMVCYRQAPGKERELVAAIRRSGGSTYYADSVKGRFTISRDNAKNSVYLQMNSLIPEDTAVYYCATPPYPGREYWGQGSQVTVSS | high polyreactivity |
| QVQLVESGGGLVQAGGSLRLSCAASGSTFQWYAMGWYRQAPGKERELVAGITRTGSTYYADSVKGRFTISRDNAKNTVYLQMNSLKPEDTAVYYCAAKWHTASGKYYYWGQGTQVTVSS | high polyreactivity |
| QVQLVESGGGLVQAGGSLRLSCAASGRIFYPYAMGWYRQAPGKERELVAAIRGGDSTNYADSVKGRFTISRDNAKNTVYLQMNSLKPEDTAVYYCAAVLRYVVRPYSYWSGGYDYWGQGTQVTVSS | high polyreactivity |
| QVQLVESGGGLVQAGGSLRLSCAASGLTFVRYAMGWYRQAPGKERELVAAISARGGSTYYADSVKGRFTISRDNAKNTVYLQMNSLKPEDTAVYYCNTVRVHGFPIDRIYDYWGQGTQVTVSS | high polyreactivity |
| QVQLVESGGGLVQAGGSLRLICAASGLTSGLNAMGWYRPAPGKERELVATIRTNGGSTYYADSVKGRFTISRDNAKNNVYLQMNSLKPEDTAVYYCAADDKGGFAVEYDYWGQGTQVTVSS | low polyreactivity |
| QVQLVESGGGLVQAGGSLRLNCAASGITFSANAMGWYRQATGKERELVASNRSSGGSTYYADSVKGRFTISRDNEKKTVYLQMNSLKPEDTAVYSRNARLGPLYVYRQYDSWGQGTQVTVSS | low polyreactivity |
| QVQLVESGGGLVQAGGSLRLSCAASGYTFNIYAMGWYRQAPGKERELVAAITSRGGGTYYADSVKGRFTISRDNAKNTVYLQMNSLKPEDTAVYYCAADVYSYYHWYTHYDYWGQGTQVTVSS | high polyreactivity |
| QVQLVESGGGLVQAGGSLRLSCAASGRIFNPYVMGWYRPAPGKERELVAAISSGGRTYYADSVKGRFTISRDNAKNTVYLQMNSLKPEDTTVYYCAREQYRRYSGYGYWGQGTQVTVSS | high polyreactivity |
| QFQLVESGGGLVQAGGSLRLSCAASGRTFVINAMGWYRQAPGKERELVAAISRGGSRTFYADSVKGLFTISRDTAKNTVYLQMNSLKPVDTAVYYCNAVAQSGRYDYWGQGTQVTVSS | high polyreactivity |
| QVQLVETWGGLVQAGGSLRLSCAASGRNFRTNAMGWYRQAPGKERELVAAITSDGTYYADSVKGRFTISRDNAKNNVYLQMNSVKPEDTAVYYCNVDDRETRDDYWGQGTQVTVSS | low polyreactivity |
| QVQLVESGGGLVQAGGSLRLSCAASGLTFTLNAMGWYRQAPGKERELVATISQDGGGTTYADSVKGRFTISRDNAKNTVYLQMNSLKPEDTAVYYCATTLPPSVWGEWSGTRYPYDYWGQGTQVTVSS | low polyreactivity |
| QVHLVESGGGLVQAGGSLRLSCDASGRLIARYAMGWHRPAPGKERELVAAISSGGRTYYADSVKGRFTISRDNAKNTVYLQMNSLKPEDTAVYYCAASSGGATRGHDYWGQGTQVTVSS | high polyreactivity |
